This is an account of results in the supplement of paper PMC5998384.

The subject of data set [1] is HeLa Kyoto. The experiment in a line: melting temperature (median over replicates), in situ; higher = more thermally stable.
Data set [2] concerns HeLa Kyoto. The experiment in a line: solubility in G1/S (NP-40 vs SDS abundance) (log2 ratio); higher = more soluble. The settings on record: cell cycle stage: G1/S.
Data set [3] deals with HeLa Kyoto. The experiment in a line: solubility change mitosis vs G1/S (difference of NP-40 vs SDS log2 ratios) (log2 ratio difference); higher = more soluble in mitosis.
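Wherever melting temperature (median over replicates), in situ is given: HeLa Kyoto cells synchronized by double thymidine or nocodazole block, proteins quantified by TMT10plex mass spectrometry, three independent biological replicates.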
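Wherever solubility change mitosis vs G1/S (difference of NP-40 vs SDS log2 ratios) is given: synchronized HeLa Kyoto cells (double thymidine block for G1/S, nocodazole release for mitosis), protein amounts in NP-40 versus SDS lysates quantified by mass spectrometry, three biological replicates.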
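Wherever solubility in G1/S (NP-40 vs SDS abundance) is given: HeLa Kyoto cells arrested at G1/S by double thymidine block, proteins quantified by TMT10plex mass spectrometry in mild NP-40 versus SDS extracts, three biological replicates.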

Regarding “MGSTESSEGRRVSFGVDEEERVRVLQGVRLSENVVNRMKEPSSPPPAPTSSTFGLQDGNLRAPHKESTLPRSGSSGGQQPSGMKEGVKRYEQEHAAIQDKLFQVAKREREAATKHSKASLPTGEGSISHEEQKSVRLARELESREAELRRRDTFYKEQLERIERKNAEMYKLSSEQFHEAASKMESTIKPRRVEPVCSGLQAQILHCYRDRPHEVLLCSDLVKAYQRCVSAAHKG [CHCHD6]”, the figures for the melting temperature in data set [1] (cell cycle stage: G1/S) and in data set [1] (cell cycle stage: mitosis) were 54.7 °C and 53.2 °C, respectively. Also, the “solubility in G1/S (log2)” value in data set [2] is 0.215. For the same sequence, the “solubility change mitosis (log2)” value in data set [3] stood at 0.232.
As for “MHRAPSPTAEQPPGGGDSARRTLQPRLKPSARAMALPRTLGELQLYRVLQRANLLSYYETFIQQGGDDVQQLCEAGEEEFLEIMALVGMATKPLHVRRLQKALREWATNPGLFSQPVPAVPVSSIPLFKISETAGTRKGSMSNGHGSPGEKAGSARSFSPKSPLELGEKLSPLPGGPGAGDPRIWPGRSTPESDVGAGGEEEAGSPPFSPPAGGGVPEGTGAGGLAAGGTGGGPDRLEPEMVRMVVESVERIFRSFPRGDAGEVTSLLKLNKKLARSVGHIFEMDDNDSQKEEEIRKYSIIYGRFDSKRREGKQLSLHELTINEAAAQFCMRDNTLLLRRVELFSLSRQVARESTYLSSLKGSRLHPEELGGPPLKKLKQEVGEQSHPEIQQPPPGPESYVPPYRPSLEEDSASLSGESLDGHLQAVGSCPRLTPPPADLPLALPAHGLWSRHILQQTLMDEGLRLARLVSHDRVGRLSPCVPAKPPLAEFEEGLLDRCPAPGPHPALVEGRRSSVKVEAEASRQ [NAB2]”, the melting temperature in data set [1] (cell cycle stage: mitosis) came to 48.9 °C. For the same sequence, in data set [2], the “solubility in G1/S (log2)” value was determined as 0.298. For the same sequence, the “solubility change mitosis (log2)” value in data set [3] was -0.11.
Turning to “MHRGVGPAFRVVRKMAASGAEPQVLVQYLVLRKDLSQAPFSWPAGALVAQACHAATAALHTHRDHPHTAAYLQELGRMRKVVLEAPDETTLKELAETLQQKNIDHMLWLEQPENIATCIALRPYPKEEVGQYLKKFRLFK [PTRHD1]”, the melting temperature in data set [1] (cell cycle stage: G1/S) was found to be 55.6 °C; in data set [1] (cell cycle stage: mitosis), 52.6 °C. The “solubility in G1/S (log2)” value in data set [2] was -0.278. In addition, in data set [3], the “solubility change mitosis (log2)” value came out at 0.625.
As to “MISRHLQNNLMSVDPASSQAMELSDVTLIEGVGNEVMVVAGVVVLILALVLAWLSTYVADSGSNQLLGAIVSAGDTSVLHLGHVDHLVAGQGNPEPTELPHPSEGNDEKAEEAGEGRGDSTGEAGAGGGVEPSLEHLLDIQGLPKRQAGAGSSSPEAPLRSEDSTCLPPSPGLITVRLKFLNDTEELAVARPEDTVGALKSKYFPGQESQMKLIYQGRLLQDPARTLRSLNITDNCVIHCHRSPPGSAVPGPSASLAPSATEPPSLGVNVGSLMVPVFVVLLGVVWYFRINYRQFFTAPATVSLVGVTVFFSFLVFGMYGR [TMUB2]”, the melting temperature was 55 °C in data set [1] (cell cycle stage: G1/S) and 54 °C in data set [1] (cell cycle stage: mitosis). In data set [2], the “solubility in G1/S (log2)” value was found to be 0.229. In addition, in data set [3], the “solubility change mitosis (log2)” value was -0.108.
With “MKGSNRNKDHSAEGEGVGKRPKRKCLQWHPLLAKKLLDFSEEEEEEDEEEDIDKVQLLGADGLEQDVGETEDDESPEQRARRPMNAFLLFCKRHRSLVRQEHPRLDNRGATKILADWWAVLDPKEKQKYTDMAKEYKDAFMKANPGYKWCPTTNKPVKSPTPTVNPRKKLWAFPSDSSRDLPSPKKAKTEEMPQLNFGMADPTQMGGLSMLLLAGEHALGTPEVSSGTCRPDVSESPELRQKSPLFQFAEISSSTSHSDASTKQCQTSALFQFAEISSNTSQLGGAEPVKRCGKSALFQLAEMCLASEGMKMEESKLIKAKESDGGRIKELEKGKEEKEIKMEKTDETRLQKEAEFEKSAKENLRDSKELRNFEALQIDDIMAIKMEDPKEIRKEELEEDHKCSHFPDFSYSASSKIIISDVPSRKDHMCHPHGIMIIEDPAALNKPEKLKKKKKKSKMDRHGNDKSTPKKTCKKRQSSESDIESVIYTIEAVAKGDWGIEKLGDTPRKKVRTSSSGKGSILDAKPPKKKVKSREKKMSKEKSSDTTKESRPPDFISISASKNISGETPEGIKAEPLTPMEDALPPSLSGQAKPEDSDCHRKIETCGSRKSERSCKGALYKTLVSEGMLTSLRANVDRGKRSSGKGNSSDHEGCWNEESWTFSQSGTSGSKKFKKTKPKEDCLLGSAKLDEEFEKKFNSLPQYSPVTFDRKCVPVPRKKKKTGNVSSEPTKTSKGPFQSQKKNLFHKIVSKYKHKKEKPNVPEKGSGDKWSNKQLFLDAIHPTEAIFSEDRNTMEPVHKVKNIPSIFNTPEPTTTQEPLVGSQKRKARKTKITHLVRTADGRVSPAGGTLDDKPKEQLQRSLPKATETDCNDKCSHNTEVGETRSSTPEMPAVSAFFSLAALAEVAAMENVHRGQRSTPLTHDGQPKEMPQAPVLISCADQ [BBX]”, the melting temperature is 47.4 °C in data set [1] (cell cycle stage: G1/S) and 50 °C in data set [1] (cell cycle stage: mitosis). Further, the “solubility in G1/S (log2)” value in data set [2] is -0.353. For the same sequence, the “solubility change mitosis (log2)” value in data set [3] was determined as 0.277.
